Measured values: the RNAGym collection of RNA variant scans (doi:10.1073/pnas.2313332121)

B1: TPR t1 (parent)
chain: GACCAAUCUGCCCUCAGAGCUCGAGAACAUCUUCGGAUGCAGAGGAGGCAGGCUUCGGUGGCGCGAUAGCGCCAACGUCCUCAACCUCCAAUGCAUCCCACCACAUGAUGAUGCCUGAAGAGCCUUGGUUUUUUG

Variants of: B1
Test: polymerase ribozyme fitness, log enrichment relative to wild type (log ratio); higher = more active; in vitro selection for triplet polymerase activity
Outline: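 Only genotypes with ≥10 input reads and ≥1 read per output were kept after Illumina sequencing of input and output libraries. These libraries were PCR-built, transcribed mutants of each subunit of a heterodimeric triplet polymerase ribozyme, each put through one triplicate in vitro selection round with frozen incubation at −7 °C, gel excision of extended constructs, streptavidin-bead capture and RT-PCR. Fitness is a logarithmic ratio of genotype enrichment to wild-type enrichment, from inverse-variance-weighted replicate averages, with the logarithm in base 2.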

Variant | polymerase ribozyme fitness (log ratio)
GACCAAUCUGCACUCAGAGCUCGAGAACAUCUUCGGAUGCAGAGGAGGCAGGCUUCGGUGGCGCGAUAGCUCCAACGUCCUCAACCUCUAAUGCAUCCCAUCACAUGAUGAUGCCUGAAGAGUCUUGCUUUUUUG [C12A G71U C89U C101U C123U G128C] | -1.52
GACCAAUCUGCACUCAGAGCUCGAGAACAUCAUGGGAUGCAGAGGAGGCAGGCUUCGGUGGCGCGAUAGCGCCAACGUCCUCAACCUCCAAUGCAUCCCACUACAUGAUGAUGCCUGAAGAGCCUUGGUUUUUUG [C12A U32A C34G C102U] | -6.82
GACCAAUCUGCACUCAGAGCUCGAGAACAUCUUCGGAUGCAGAGGAGGCAGGCAUCGGUGGCGCGAUAGCGCCAACGUCCUCAACCUCCAAGGCAUCCCACCACAUGAUGAUGCCUGAAGAGCCUUGGUUUCUUG [C12A U54A U92G U132C] | -3.79
GACCAAUCUGCGCUCAGAGCUCGAGAACAUCUUCGGAUGCAGAGGAGGCAGGCUUCGGUGGCGCGAUAGCGCCAACGUCCUCAACCUCCAAUGCAUCCCACCACAUGAUGAUGCCUGAAGAGCCUUGGUUUUUUG [C12G] | 0.29
GACCAAUCUGCGCUCAGCGCUCGAGAACAUCUUCGGAUGCAGAGGAGGCAGGCUUCGGUGGCGCGAUAGCGCCAACGUCCUCAACCUUCAAUGCAUCCCACCACAUGAUGAUGCCUGAAGAGCCUUGGUUUUUUG [C12G A18C C88U] | -2.16
GACCAAUCUGCACUCAGAGCUCGAGAACAUCUUCGGAUGCAGAGGAGGCAGGCUGCAGUGGCGCGAUAGCGCCAACGUCCUCAACCUCCAAUGCAUCCCACCACAUGAAGAUGCCUUAAGAGCCUUGGUUUCUGG [C12A U55G G57A U109A G117U U132C U134G] | -6.47
GACCAAUCUGCACUCAGAGCUCGAGAACAUCUUCGGAUGCAGAGGAGGCAGGCUUCGGUGGCGCGAUAGCGCCAACGUCCUCAACCUCCAAUGCAUCCCACCACAAGAUGAUGCCUGAAGAGCCUUGGUUUUUUG [C12A U106A] | -0.467
GACCAAUCUGCACUCAGAGCUCGAGAACAUCUUCGGAUGCAGAGGAGGCAGGCUUCGGUGGCGCGAUAGCGCCAACGACCUCAACCUCCAAUGCAUCCCACCACAUGAUGAUGCCUGAUGAGCCUUGGUUUUUUG [C12A U78A A119U] | -0.914
GACCAAUCUGCGCUCUGAGCUCGAGAACAUCUUCGGAUGCAGAGGAGGCAGGCUUCGGUGGCGCGAUAGCGUCAACGUCCUCAACCUCCAAUUCAUCCCACCACAUGAUGAAGCCUGAAGAGCCUUGGUUUUUUG [C12G A16U C72U G93U U112A] | -3.35
GACCAAUCUGCACUCAGAGCUCGAGAACAUCUUCGGAUGCAGAGGAGGCAGGCCUCGGUGGCGCGAUAGCGCCAACGUCCUCAACCUCCAAUGCAUCCCACCACAUGAUGAUGCUUGAAGAGCCUUGGUUUUUUG [C12A U54C C115U] | -2.47
GACCAAUCUGCGCUCAGGGCUCGAGAACAUCUUCGGAUGCAGAGGAGGCAGGCUUCGGUGGCGCGAUAGCGCCUACGGCCUCAACCACCAAUGCAUCCCACCACAUGAUGAUGCCUGAAGAGCCUUGGUUUUUUG [C12G A18G A74U U78G U87A] | -4.81
GACCAAUCUGCACUCAGAGCCCGAGAACAUCUUCGGAUGCAGAGGAGGCAGGCUUCGGUGGCGCGAUAGCGGCAACGUCCUCAACCUCCAAUGCAUCCCACCACAUGAUGAUGCCUGAAGAGCCUUGGUUUUUUG [C12A U21C C72G] | -0.431
GACCAAUCUGCACUCAGAGCCCGAGAACAUCUUCGGAUGUAAAGGAGGCCGGCUUCGGUGGCGCGAUAGCGCCAACGUCCUCAACCUCCAAUGCAUCCCACCACAUGAUGAUGCCUGAAGAGCCUUGGUUUUUUG [C12A U21C C40U G42A A50C] | -3.16
GACCAAUCUGCACUCAGAGCUCGAGAACAUCUUCGGAUGCAGAGGAGGCAGGCUUCGGUGGCGCGAUAGCGCCAACGUCCUCAACCACCAAUGCAUCCCACCACAUGAUGAUGCCUGAAGAGCCUUGGUUUUUUG [C12A U87A] | -0.82
GACCAAUCUGCGCUCCGAGCUCGAGAACAUCUUCGGAUGCAGAGGAGGCAGGCUUCGGUGGCGUGAUAGCGCCAACGUCCUCAACCUCCAAUGCAUCCCACCACAUGAUGAUGCCUGAAGAGCCUUGGUUUUUUG [C12G A16C C64U] | -2.46
GACCAAUCUGCACGCAGAGCUCGAGAACAUCUUCGGAUGCAGAGGAGGCAGGCUUCGGUGGCGCGAUAGCGUCAACGUCCCCAACCUCCAAUCCAUCCCACCACAUGAUGAUGCCUGAUCAGCCUUGGUUUUUUG [C12A U14G C72U U81C G93C A119U G120C] | -0.415
GACCAAUCUGCACUCAGAGCUCGAGAACAUCUUCGGAUGCAGAGGAGGCAGGCUUCGGUGGCGCGAUAGCGCCAACGUCCUCAACCUCCAAUGCAUCCCACCACAUGAUGAUGCCAGAAGAGCCUUGGUUUUUUG [C12A U116A] | -4.12
GACCAAUCUGCACUCAGAGCUCGAGAACAUCUUCGGAUGCAGAGGAGGCAGGCUUCGGUGGCGCGAUAGCGCCAACGCCCUCAUCCUCCAAUGCAUCCCACCACAUGAUGAUGCCUGAAGAGCCUUGGUUUUUUG [C12A U78C A84U] | -1.77
GACCAAUCUGCACUCAGAGCUCGAGAACAUCUUCGGAUGCAGAGGAGGCAGGCUUCGGUGGCGCGAUAGCGCCAACGUCCUCAACCUCCAAUGCAUCCCACCACAUGAUGAUCCCUGAAGAGCCUCGGUUUUUUG [C12A G113C U126C] | -3.59
GACCAAUCUGCACUCAGAGCUCGAGAACAUCUUCGGAUGCAGAGGAGGCAGGCUUCGGUGGCGCGAUAGCGCCAACGUCCUCAACCUCCAAGGCAUCCCACCACAUGAUGAUGCCUGAAGAGCCUUGAUUUUUUG [C12A U92G G128A] | -5.4
GACCAAUCUGCACUCAGAGCUCGAGAACAUCUUCGGAUGCAGAGGAGGCAGGCUUCGGUGGCGCGAUAGCGCCAACGUCCUCAACCUCCAAUGCAUCCCACCACAUGAUGAUGCCUGAAGAUCAUUGGUUUUUUG [C12A G122U C124A] | 1.6

Variant | polymerase ribozyme fitness (log ratio)
GACCAAUCUGCGCUCAGCGCUCGAGAACAUCUUCGGAUGCAGAGGAGGCAGGCUUUGGUGGCGCGAUAGCGCCAACGUCUUCAACCUCCAAUGCAUCCCACCACAUGAUGAGGCCUGAAGAGCCUUGGUUUUUUG [C12G A18C C56U C80U U112G] | -4.94
GACCAAUCUGCACUCAGAGCUCGAGAACAUCUUCGGAUGCAGAGGAGGCAGGCUUCGGUGGCGCGAUAGCGCCAACGUCCUCAACCUCCAAUGCAUCCCACCACAUGAUUAUGCCUGAAGAGCCUUGGUUUUUUG [C12A G110U] | -1.4
GACCAAUCUGCACUCAGAGCUCGAGAACAUCUUCGGAUGCAGAGGAGGCAGGCUUCGGUGGCGCGAUAGCGCCAACGUCCUCAACCUCCAAUACAUCCCACCACAUGAUGAUGCCUGAAGAGCCUUGGUUUUUUG [C12A G93A] | -1.39
GACCAAUCUGCACUCAGAGCUCGAGAACAUCUUCGGAUGCAGAGGAGGCAGGCUUCGGUGGCGCGAUAGCGCCAACGUCCUCAACCUCCAAUGCAUCCCACCACAUGAAGAUGCCUGAAGAGCCUUGGUUUUUUG [C12A U109A] | -5.14
GACCAAUCUGCACUCAGAGCUCGAGAACAUCUUCGGAUGCAGAGGAGGCAGGCUUCGGUGGCGCGAUAGCGCCAACGUCCUCAACCUCCAAUGCAUCCCACCACAUGAUGAUGCCUCAAGAGCCUUGGUUUUUUG [C12A G117C] | -3
GACCAAUCUGCACUCAGAGCUCGAGAACAUCUUCGGAUGCAGAGGAGGCAGGCUUCGGGGGCGCGAUAGCGCCAACGUCCUCAACCUCCAAUGCAUCCCACCACAUGAUGAUGCCUGAAGAGCCUUGGUUUUUUG [C12A U59G] | -0.837
GACCAAUCUGCACUCAGAGCUCGAGAACAUCUUCGGAUGCAGAGGAGGCAGGCUUCGGCGGCGCGAUAGCGCCAACGUCCUCAACCUCCAAUGCAUCCCACCACAUGAUGAUGCCUGAAGAGCCUUGGUUUUUUG [C12A U59C] | -0.85
GACCAAUCUGCACUCAGAGCUCGAGAACAUCUUCGGAUGCAGAGGAGGCAGGCUUCGGUGGCGCGAUAGCGCCAACGUCCUCAACCUCCAAUGCAUCCCACCACAUGAUGAUGCCUGAAAAGCCUUGGUUUUUUG [C12A G120A] | 0.0228
GACCAAUCUGCACUCAGAGCUCGAGAACAUCUUCGGAUGCAGAGGAGGCAGGCUUCGGUGGCGCGAUAGCGCCAACGUCCUCAACCUCCAAUGCAUCCCACCACAUGAUGAUGCCUGAACAGCCUUGGUUUUUUG [C12A G120C] | 0.84
GACCAAUCUGCACUCAGAGCUCGAGAACAUCUUCGGAUGCAGAGGAGGCAGGCUUCGGUGGCGCGAUAGCGCCAACGUCCUCAACCUCCAAUGCAUCCCACCACAUGAUGAAGCCUGAAGAGCCUUGGUUUUUUG [C12A U112A] | 1.18
GACCAAUCUGCACUCAGAGCUCGAGAACAUCUUCGGAUGCAGAGGAGGCAGGCUUCGGUGGCGCGAUAGCGCCAACGUCCUCAACCUCCAAUGCAACCCACCACAUGAUGAUGCCUGAAGAGCCUUGGUUUUUUG [C12A U96A] | -1.84
GACCAAUCUGCACUCAGAGCUCGAGAACAUCUUCGGACGCAGAAGAGGCAGGCUUGGGUGGCGCGAUAGCGCCAACGUCCUCAACCUCCAAUACAUCCCACCAGAUGAUUAUGCCUGAAGAGCCUUGGUUUUUUG [C12A U38C G44A C56G G93A C104G G110U] | -7.49
GACCAAUCUGCACUCAGAGCACGAGAACAUCUUCGGAUGCAGAGGCGGCAGGCUUCGGUGGCGCGAUAGCGCAAACGUCCUCAACCGCCAAUGCAUCCCACCACAUGAUGAUGCCUGAAGAGCCUUGGUUUUUUG [C12A U21A A46C C73A U87G] | -0.648
GACCAAUCUGCACUCAGAGCUCGAGAACAUCUUCGGAUGCAGAGGAGGCAGGCUUCGGUGGCGCGAUAGCGCCAACGUCCUCAACCUCCAAUGCAUCCCACCACAUAAUGAUGCCUGAAGAGCCUUGGUUUUUUG [C12A G107A] | -5.12
GACCAAUCUGCGCUCUGAGCUCGAGAACAUCUUCGGAUGCAGAGGAGGCAGGCUCCGGUGGCGCGAUAGCGCCAACGCCCUCAACCUCCAAUGCAUCCCACCACAUGGUGAUGCCUGAAGAGUCUUGGUUUUUUG [C12G A16U U55C U78C A108G C123U] | -3.68
GACCAAUCUGCACUCAGAGCUCGAGAACAUCUUCGGAUGCAGAGGAGGCAGGCUUCGGUGGCGCGAUAGCGCCAACGUCCUCAACCUCCAAAGCAUGCCACCACAUGAUGAUGCCUGAAGAGGCUUGUUUUUUUG [C12A U92A C97G C123G G128U] | -6.73
GACCAAUCUGCACGCAGAGCUCGAGAACAUCUUCGGAUGCAGAGGAGGCAGGCUUCGGUGGCGCGAUAGCGCCAACGUCCCCAACCUCCAAUCCAUCCCACCACAUGAUGAUGCCUGAUCAGCCUUGGUUUUUUG [C12A U14G U81C G93C A119U G120C] | -0.255
GACCAAUCUGCACUCAGAGCUCGAGAACAUCUUCGGAUGCAGAGGAGGCAGGCUUCGGUGGCGCGAUAGCGCCAACGUCCUCAACCUCCAAUGCAUCCCACCACAUGAUGAUGCCUGAAGAGCCUUGGUUUUUUU [C12A G135U] | -1.23
GACCAAUCUGCACUCAGAGCUCGAGAACAUCCUCGGAUGCAGAGAAGGCAGGCUUCGGUGGCGCGAUAGCGCCAACGUCCUCAACCUCCAAUGCAUCCCACCACAUGAUGAUGCCUGAAGAGCCUUGGUUUAUUG [C12A U32C G45A U132A] | -1.76
GACCAAUCUGCACUCAGAGCUCGAGAACAUCUUCGGAUGCAGAGGAGGCAGGCUUCGGUGGCGCGAUAGCGCCAACUUCCUCAACCUCCAAUGCAUCCCACCACAUGAUCAUGCCUGAAGAGCCUUGGUCUUUUG [C12A G77U G110C U130C] | -3.57
GACCAAUCUGCACUCAGAGCUCGAGAACAUCUUCGGAUGCAGAGGAGGCAGGCUUCGGUGGCGCGAUAGCGCCAACAUCCUCAACCUCCAAUGCAUCCCACCACAUGAUGAUGCCUGAAGAGCCUUGGUUUUUUG [C12A G77A] | -0.669
